The text below walks through data of article PMC11480844 (2024).

The chains are these.
B1: H2-Kb / Ed33 (parent complex)
chain 1: SQLAEENSWALSVHEGESVTVNCSYKTSITALQWYRQKSGKGPAQLILIRSNEREKRNGRLRATLDTSSQSSSLSITATRCEDTAVYFCATDHNNAGAKLTFGGGTRLTVRP
chain 2: DAGVTQTPRHEVAEKGQTIILKCEPVSGHNDLFWYRQTKIQGLELLSYFRSKSLMEDGGAFKDRFKAEMLNSSFSTLKIQPTEPKDSAVYLCASSLYTNQAPLFGEGTRLSVL
chain 3: not shown
chain 4: IQKTPQIQVYSRHPPENGKPNILNCYVTQFHPPHIEIQMLKNGKKIPKVEMSDMSFSKDWSFYILAHTEFTPTETDTYACRVKHDSMAEPKTVYWDRDM
chain 5: SIINFEKL
B2: H2-Kb / Ed39 (parent complex)
chain 1: GEQVEQRPPHLSVREGDSAVIICTYTDPNSYYFFWYKQEPGAGLQLLMKVFSSTEINEGQGFTVLLNKKDKQLSLNLTAAHPGDSAVYFCATMSNYNVLYFGSGTKLTVEP
chain 2: GALVYQYPRRTICKSGTSMRMECQAVGFQATSVAWYRQSPQKTFELIALSTVNSAIKYEQNFTQEKFPISHPNLSFSSMTVLNAYLEDRGLYLCGARDGSYEQYFGPGTRLTVL
chain 3: not shown
chain 4: B1 chain 4
chain 5: SIINFEKL
Note: test concentration or dose not given here.

The variants in one assay derive from B1. The assay can be described thus: % of reporter cells activated (NFAT-GFP), raw.
Consider chain 5 S1D, for which the ratio to parent was found to be 1.05.

For chain 5 S1H, the ratio to parent turned out to be 0.634.

On to chain 5 S1N, for which the ratio to parent amounted to 0.173.

As to chain 5 S1Q, the ratio to parent turned out to be 0.91.

Regarding chain 5 S1K, the ratio to parent was found to be 0.121.

With chain 5 S1W, the ratio to parent came out at 0.182.

In the case of chain 5 S1G, the ratio to parent turned out to be 0.48.

In the case of chain 5 I2V, the ratio to parent turned out to be 1.04.

Consider chain 5 I2D, for which the ratio to parent is 0.897.

With chain 5 I2T, the ratio to parent was 0.981.

As for chain 5 I2N, the ratio to parent was determined as 1.01.

With chain 5 I2F, the ratio to parent was found to be 0.774.

As to chain 5 I2R, the ratio to parent is 0.807.

As for chain 5 I2L, the ratio to parent came to 1.05.

For chain 5 N4D, the ratio to parent was determined as 0.135.

chain 5 N4C: the ratio to parent came to 0.0904.

On to chain 5 N4P, for which the ratio to parent was 0.000438.

On to chain 5 N4F, for which the ratio to parent worked out at 0.0234.

For chain 5 N4L, the ratio to parent turned out to be 0.428.

As for chain 5 F5G, the ratio to parent is 0.844.

Regarding chain 5 F5E, the ratio to parent was 0.625.

For chain 5 F5N, the ratio to parent amounted to 0.876.

On to chain 5 F5Q, for which the ratio to parent worked out at 1.01.

Take chain 5 F5R: the ratio to parent is 0.982.

As for chain 5 F5K, the ratio to parent turned out to be 0.862.

As to chain 5 F5C, the ratio to parent stood at 1.05.

On to chain 5 K7M, for which the ratio to parent was 0.0938.

As to chain 5 K7W, the ratio to parent was 0.74.

In the case of chain 5 K7V, the ratio to parent was 0.427.

Take chain 5 K7Y: the ratio to parent came out at 0.157.

For the variant chain 5 K7S, the ratio to parent is 0.754.

With chain 5 K7F, the ratio to parent was determined as 0.0757.

For chain 5 K7A, the ratio to parent was 0.227.

In the case of chain 5 K7P, the ratio to parent came out at 0.372.

As for chain 5 K7I, the ratio to parent turned out to be 0.018.

As to chain 5 K7Q, the ratio to parent came out at 0.0157.

On to chain 5 L8W, for which the ratio to parent came out at 0.881.

With chain 5 L8P, the ratio to parent is 0.846.

Turning to chain 5 L8H, the ratio to parent came out at 0.968.

Consider chain 5 L8N, for which the ratio to parent worked out at 0.905.

As for chain 5 L8D, the ratio to parent was determined as 0.731.

chain 5 L8K: the ratio to parent was 0.941.

On to chain 5 L8Y, for which the ratio to parent stood at 1.01.

Regarding chain 5 I3T, the ratio to parent was 1.04.

Turning to chain 5 I3M, the ratio to parent is 1.07.

Consider chain 5 I3H, for which the ratio to parent stood at 0.895.

chain 5 I3D: the ratio to parent came out at 0.634.

On to chain 5 E6N, for which the ratio to parent turned out to be 0.00413.

Turning to chain 5 E6V, the ratio to parent was 0.0218.

For the variant chain 5 E6C, the ratio to parent stood at 0.0452.

chain 5 E6F: the ratio to parent was found to be 0.101.

On to chain 5 E6W, for which the ratio to parent was found to be 0.0137.

Turning to chain 5 E6R, the ratio to parent was 0.00434.

chain 5 E6P: the ratio to parent was determined as 0.0303.

On to chain 5 E6H, for which the ratio to parent was 0.223.

As to chain 5 E6M, the ratio to parent came out at 0.0967.

chain 5 E6Y: the ratio to parent was found to be 0.182.

In a further assay the parent is B2. The assay can be described thus: % of reporter cells activated (NFAT-GFP), raw.
Take chain 5 N4M: the ratio to parent came to 0.00879.

Regarding chain 5 N4R, the ratio to parent was 0.22.

As for chain 5 N4Q, the ratio to parent was 0.00338.

In the case of chain 5 N4H, the ratio to parent worked out at 0.124.

For chain 5 N4E, the ratio to parent worked out at 0.106.

In the case of chain 5 N4A, the ratio to parent came out at 0.0243.

On to chain 5 N4I, for which the ratio to parent stood at 0.00838.

With chain 5 N4D, the ratio to parent stood at 1.25.

On to chain 5 N4F, for which the ratio to parent was found to be 0.0119.

For the variant chain 5 N4G, the ratio to parent stood at 0.114.

Take chain 5 F5S: the ratio to parent is 0.829.

On to chain 5 F5Q, for which the ratio to parent worked out at 0.712.

Turning to chain 5 F5L, the ratio to parent stood at 0.765.

chain 5 F5H: the ratio to parent came to 0.791.

For the variant chain 5 F5K, the ratio to parent is 0.374.

For the variant chain 5 F5R, the ratio to parent came out at 0.562.

chain 5 F5Y: the ratio to parent was 0.867.

For the variant chain 5 F5P, the ratio to parent is 0.281.

Regarding chain 5 F5G, the ratio to parent was found to be 0.454.

Regarding chain 5 F5W, the ratio to parent was 0.738.

On to chain 5 F5T, for which the ratio to parent turned out to be 0.844.

chain 5 F5C: the ratio to parent was found to be 0.689.

Take chain 5 F5N: the ratio to parent came out at 0.484.

For chain 5 I3Q, the ratio to parent was 0.3.

Take chain 5 I3T: the ratio to parent amounted to 0.416.

Take chain 5 I3L: the ratio to parent was 0.706.

chain 5 I3W: the ratio to parent turned out to be 0.472.

Take chain 5 I3M: the ratio to parent was 0.564.

With chain 5 I3S, the ratio to parent amounted to 0.12.

Turning to chain 5 I3A, the ratio to parent turned out to be 0.56.

On to chain 5 I3K, for which the ratio to parent came out at 0.286.

With chain 5 I3G, the ratio to parent came to 0.156.

Turning to chain 5 I3E, the ratio to parent came to 0.558.

Consider chain 5 I3H, for which the ratio to parent amounted to 0.0308.

For chain 5 K7H, the ratio to parent was determined as 0.0199.

Take chain 5 K7G: the ratio to parent was 0.0989.

Regarding chain 5 K7T, the ratio to parent came to 0.359.

As to chain 5 K7D, the ratio to parent stood at 0.00558.

Regarding chain 5 K7E, the ratio to parent is 0.00639.

Turning to chain 5 K7S, the ratio to parent came out at 0.293.

As for chain 5 K7W, the ratio to parent came out at 0.355.

As to chain 5 K7Q, the ratio to parent was determined as 0.865.

Regarding chain 5 K7Y, the ratio to parent turned out to be 0.0483.

On to chain 5 K7P, for which the ratio to parent turned out to be 0.326.

For chain 5 K7C, the ratio to parent was 0.331.

Turning to chain 5 K7R, the ratio to parent came to 0.355.

With chain 5 K7N, the ratio to parent amounted to 0.0309.

For the variant chain 5 K7M, the ratio to parent was 0.665.

On to chain 5 K7V, for which the ratio to parent turned out to be 0.115.

On to chain 5 E6L, for which the ratio to parent came to 0.0111.

Take chain 5 E6F: the ratio to parent was determined as 0.00457.

On to chain 5 E6W, for which the ratio to parent was found to be 0.00837.

chain 5 E6G: the ratio to parent came to 0.00768.

As for chain 5 E6S, the ratio to parent was determined as 0.0298.

Turning to chain 5 E6K, the ratio to parent was found to be 0.308.

Consider chain 5 E6M, for which the ratio to parent was 0.0331.

Regarding chain 5 E6P, the ratio to parent was 0.00676.

On to chain 5 E6V, for which the ratio to parent turned out to be 0.0176.

Turning to chain 5 S1H, the ratio to parent came out at 0.0798.

For the variant chain 5 S1K, the ratio to parent amounted to 0.0783.

Consider chain 5 S1I, for which the ratio to parent worked out at 0.00338.

With chain 5 S1N, the ratio to parent was 0.00689.

For chain 5 S1F, the ratio to parent was found to be 0.00514.

Take chain 5 S1Y: the ratio to parent is 0.351.

For chain 5 S1R, the ratio to parent is 0.0616.

For the variant chain 5 S1M, the ratio to parent was 0.00499.

For chain 5 S1L, the ratio to parent came out at 0.00419.

In the case of chain 5 S1G, the ratio to parent was 0.272.

As to chain 5 S1V, the ratio to parent stood at 0.0243.

On to chain 5 I2P, for which the ratio to parent is 0.58.

Consider chain 5 I2L, for which the ratio to parent came out at 1.03.

chain 5 I2F: the ratio to parent came out at 0.683.

Turning to chain 5 I2S, the ratio to parent was determined as 0.779.

Turning to chain 5 I2E, the ratio to parent stood at 0.719.

As to chain 5 I2N, the ratio to parent came to 0.18.

For chain 5 I2C, the ratio to parent stood at 0.926.

For the variant chain 5 I2M, the ratio to parent was determined as 0.907.

For chain 5 I2G, the ratio to parent was 0.841.

Consider chain 5 I2K, for which the ratio to parent came to 0.396.

chain 5 I2W: the ratio to parent worked out at 0.453.

On to chain 5 I2T, for which the ratio to parent amounted to 0.781.

For the variant chain 5 L8I, the ratio to parent came to 0.771.

Take chain 5 L8A: the ratio to parent amounted to 0.663.

Consider chain 5 L8Y, for which the ratio to parent was determined as 0.83.

With chain 5 L8R, the ratio to parent was found to be 0.801.

In the case of chain 5 L8F, the ratio to parent amounted to 0.64.

chain 5 L8G: the ratio to parent is 0.676.

Regarding chain 5 L8S, the ratio to parent was 0.462.

chain 5 L8V: the ratio to parent came to 0.591.

chain 5 L8M: the ratio to parent turned out to be 0.762.

For chain 5 L8C, the ratio to parent is 0.483.

Consider chain 5 L8T, for which the ratio to parent came to 0.703.

chain 5 L8H: the ratio to parent is 0.788.
